Each block holds one binder with its values, some of them ahead of it.
Columns and labels:
[1] = target: T1, P1 (human); experiment: linear peptide array on glass (JPT)
T1 construct: linear 15-mer from the N-terminal coiled coil domain of human ANGPTL4
T1 peptide: GPVQSKSPRFASWDE
Experimental: (§1) The ability of selected antibodies of invention, namely NEG276 and NEG318, to bind to linear 15-amino-acid peptides derived from the N-terminal coiled coil domain of human ANGPTL4 was tested. The peptides were immobilized on a glass surface, and the ability of NEG276 and NEG318 to bind to the immobilized peptides was evaluated using experimental methods optimized for linear peptide epitope mapping at JPT Peptide Technologies (Berlin, Germany).

[2] = target: T2, P2 (human); experiment: linear peptide array on glass (JPT)
T2 construct: linear 15-mer from the N-terminal coiled coil domain of human ANGPTL4
T2 peptide: QSKSPRFASWDEMNV
Experimental: as §1

[3] = target: T3, P3 (human); experiment: linear peptide array on glass (JPT)
T3 construct: linear 15-mer from the N-terminal coiled coil domain of human ANGPTL4
T3 peptide: SPRFASWDEMNVLAH
Experimental: as §1

[4] = target: T4, P4 (human); experiment: linear peptide array on glass (JPT)
T4 construct: linear 15-mer from the N-terminal coiled coil domain of human ANGPTL4
T4 peptide: FASWDEMNVLAHGLL
Experimental: as §1

[5] = target: T5, P6 (human); experiment: linear peptide array on glass (JPT)
T5 construct: linear 15-mer from the N-terminal coiled coil domain of human ANGPTL4
T5 peptide: MNVLAHGLLQLGQGL
Experimental: as §1

[6] = target: T6, P7 (human); experiment: linear peptide array on glass (JPT)
T6 construct: linear 15-mer from the N-terminal coiled coil domain of human ANGPTL4
T6 peptide: LAHGLLQLGQGLREH
Experimental: as §1

[7] = target: T7, P8 (human); experiment: linear peptide array on glass (JPT)
T7 construct: linear 15-mer from the N-terminal coiled coil domain of human ANGPTL4
T7 peptide: GLLQLGQGLREHAER
Experimental: as §1

[8] = target: T8, P9 (human); experiment: linear peptide array on glass (JPT)
T8 construct: linear 15-mer from the N-terminal coiled coil domain of human ANGPTL4
T8 peptide: QLGQGLREHAERTRS
Experimental: as §1

[9] = target: T9, P11 (human); experiment: linear peptide array on glass (JPT)
T9 construct: linear 15-mer from the N-terminal coiled coil domain of human ANGPTL4
T9 peptide: REHAERTRSQLSALE
Experimental: as §1

[10] = target: T10, P12 (human); experiment: linear peptide array on glass (JPT)
T10 construct: linear 15-mer from the N-terminal coiled coil domain of human ANGPTL4
T10 peptide: AERTRSQLSALERRL
Experimental: as §1

[11] = target: T11, P13 (human); experiment: linear peptide array on glass (JPT)
T11 construct: linear 15-mer from the N-terminal coiled coil domain of human ANGPTL4; printed with Ser where ANGPTL4 has Cys
T11 peptide: TRSQLSALERRLSAS
Experimental: as §1

[12] = target: T12, P14 (human); experiment: linear peptide array on glass (JPT)
T12 construct: linear 15-mer from the N-terminal coiled coil domain of human ANGPTL4; printed with Ser where ANGPTL4 has Cys
T12 peptide: QLSALERRLSASGSA
Experimental: as §1

[13] = target: T13, P15 (human); experiment: linear peptide array on glass (JPT)
T13 construct: linear 15-mer from the N-terminal coiled coil domain of human ANGPTL4; printed with Ser where ANGPTL4 has Cys
T13 peptide: ALERRLSASGSASQG
Experimental: as §1

[14] = target: T14, P16 (human); experiment: linear peptide array on glass (JPT)
T14 construct: linear 15-mer from the N-terminal coiled coil domain of human ANGPTL4; printed with Ser where ANGPTL4 has Cys
T14 peptide: RRLSASGSASQGTEG
Experimental: as §1

[15] = target: T15, P17 (human); experiment: linear peptide array on glass (JPT)
T15 construct: linear 15-mer from the N-terminal coiled coil domain of human ANGPTL4; printed with Ser where ANGPTL4 has Cys
T15 peptide: SASGSASQGTEGSTD
Experimental: as §1

[16] = target: T16, P18 (human); experiment: linear peptide array on glass (JPT)
T16 construct: linear 15-mer from the N-terminal coiled coil domain of human ANGPTL4; printed with Ser where ANGPTL4 has Cys
T16 peptide: GSASQGTEGSTDLPL
Experimental: as §1

[17] = target: T17, P19 (human); experiment: linear peptide array on glass (JPT)
T17 construct: linear 15-mer from the N-terminal coiled coil domain of human ANGPTL4; printed with Ser where ANGPTL4 has Cys
T17 peptide: SQGTEGSTDLPLAPE
Experimental: as §1

[18] = target: T18, P20 (human); experiment: linear peptide array on glass (JPT)
T18 construct: linear 15-mer from the N-terminal coiled coil domain of human ANGPTL4
T18 peptide: TEGSTDLPLAPESRV
Experimental: as §1

[19] = target: T19, P21 (human); experiment: linear peptide array on glass (JPT)
T19 construct: linear 15-mer from the N-terminal coiled coil domain of human ANGPTL4
T19 peptide: STDLPLAPESRVDPE
Experimental: as §1

[20] = target: T20, P22 (human); experiment: linear peptide array on glass (JPT)
T20 construct: linear 15-mer from the N-terminal coiled coil domain of human ANGPTL4
T20 peptide: LPLAPESRVDPEVLH
Experimental: as §1

[21] = target: T21, P23 (human); experiment: linear peptide array on glass (JPT)
T21 construct: linear 15-mer from the N-terminal coiled coil domain of human ANGPTL4
T21 peptide: APESRVDPEVLHSLQ
Experimental: as §1

[22] = target: T22, P24 (human); experiment: linear peptide array on glass (JPT)
T22 construct: linear 15-mer from the N-terminal coiled coil domain of human ANGPTL4
T22 peptide: SRVDPEVLHSLQTQL
Experimental: as §1

[23] = target: T23, P25 (human); experiment: linear peptide array on glass (JPT)
T23 construct: linear 15-mer from the N-terminal coiled coil domain of human ANGPTL4
T23 peptide: DPEVLHSLQTQLKAQ
Experimental: as §1

[24] = target: T24, P26 (human); experiment: linear peptide array on glass (JPT)
T24 construct: linear 15-mer from the N-terminal coiled coil domain of human ANGPTL4
T24 peptide: VLHSLQTQLKAQNSR
Experimental: as §1

[25] = target: T25, P28 (human); experiment: linear peptide array on glass (JPT)
T25 construct: linear 15-mer from the N-terminal coiled coil domain of human ANGPTL4
T25 peptide: TQLKAQNSRIQQLFH
Experimental: as §1

[26] = target: T26, P29 (human); experiment: linear peptide array on glass (JPT)
T26 construct: linear 15-mer from the N-terminal coiled coil domain of human ANGPTL4
T26 peptide: KAQNSRIQQLFHKVA
Experimental: as §1

[27] = target: T27, P30 (human); experiment: linear peptide array on glass (JPT)
T27 construct: linear 15-mer from the N-terminal coiled coil domain of human ANGPTL4
T27 peptide: NSRIQQLFHKVAQQQ
Experimental: as §1

[28] = target: T28, P31 (human); experiment: linear peptide array on glass (JPT)
T28 construct: linear 15-mer from the N-terminal coiled coil domain of human ANGPTL4
T28 peptide: IQQLFHKVAQQQRHL
Experimental: as §1

[29] = target: T29, P32 (human); experiment: linear peptide array on glass (JPT)
T29 construct: linear 15-mer from the N-terminal coiled coil domain of human ANGPTL4
T29 peptide: LFHKVAQQQRHLEKQ
Experimental: as §1

[30] = target: T30, P33 (human); experiment: linear peptide array on glass (JPT)
T30 construct: linear 15-mer from the N-terminal coiled coil domain of human ANGPTL4
T30 peptide: KVAQQQRHLEKQHLR
Experimental: as §1

[31] = target: T31, P34 (human); experiment: linear peptide array on glass (JPT)
T31 construct: linear 15-mer from the N-terminal coiled coil domain of human ANGPTL4
T31 peptide: QQQRHLEKQHLRIQH
Experimental: as §1

[32] = target: T32, P35 (human); experiment: linear peptide array on glass (JPT)
T32 construct: linear 15-mer from the N-terminal coiled coil domain of human ANGPTL4
T32 peptide: RHLEKQHLRIQHLQS
Experimental: as §1

[33] = target: T33, P36 (human); experiment: linear peptide array on glass (JPT)
T33 construct: linear 15-mer from the N-terminal coiled coil domain of human ANGPTL4
T33 peptide: EKQHLRIQHLQSQFG
Experimental: as §1

[34] = target: T34, P38 (human); experiment: linear peptide array on glass (JPT)
T34 construct: linear 15-mer from the N-terminal coiled coil domain of human ANGPTL4
T34 peptide: IQHLQSQFGLLDHKH
Experimental: as §1

[35] = target: T35, P39 (human); experiment: linear peptide array on glass (JPT)
T35 construct: linear 15-mer from the N-terminal coiled coil domain of human ANGPTL4
T35 peptide: LQSQFGLLDHKHLDH
Experimental: as §1

[36] = target: T36, P40 (human); experiment: linear peptide array on glass (JPT)
T36 construct: linear 15-mer from the N-terminal coiled coil domain of human ANGPTL4
T36 peptide: QFGLLDHKHLDHEVA
Experimental: as §1

[37] = target: T37, P41 (human); experiment: linear peptide array on glass (JPT)
T37 construct: linear 15-mer from the N-terminal coiled coil domain of human ANGPTL4
T37 peptide: LLDHKHLDHEVAKPA
Experimental: as §1

[38] = target: T38, P42 (human); experiment: linear peptide array on glass (JPT)
T38 construct: linear 15-mer from the N-terminal coiled coil domain of human ANGPTL4
T38 peptide: HKHLDHEVAKPARRK
Experimental: as §1

[39] = target: T39, P43 (human); experiment: linear peptide array on glass (JPT)
T39 construct: linear 15-mer from the N-terminal coiled coil domain of human ANGPTL4
T39 peptide: KHLDHEVAKPARRKR
Experimental: as §1

[40] = target: T40, Cynomolgus monkey ANGPTL4(26-161)-FLAG-His6-Avi (cynomolgus monkey, biotin on the C-terminal Avi tag (BirA) where the protein is immobilised); experiment: Octet (ForteBio) kinetics; average KD of the runs
T40 construct: also called Cyno ANGPTL4 (26-161)
T40 chain: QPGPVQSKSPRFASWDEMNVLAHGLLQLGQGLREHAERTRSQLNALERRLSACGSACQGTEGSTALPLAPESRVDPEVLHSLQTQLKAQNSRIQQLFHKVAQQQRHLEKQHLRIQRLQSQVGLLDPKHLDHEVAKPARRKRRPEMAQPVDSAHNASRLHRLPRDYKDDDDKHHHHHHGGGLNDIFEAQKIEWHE

- binding result [1]: no binding
- binding result [2]: no binding
- binding result [3]: no binding
- binding result [4]: no binding
- binding result [5]: no binding
- binding result [6]: no binding
- binding result [7]: no binding
- binding result [8]: no binding
- binding result [9]: no binding
- binding result [10]: no binding
- binding result [11]: no binding
- binding result [12]: no binding
- binding result [13]: no binding
- binding result [14]: no binding
- binding result [15]: no binding
- binding result [16]: no binding
- binding result [17]: no binding
- binding result [18]: no binding
- binding result [19]: no binding
- binding result [20]: no binding
- binding result [21]: no binding
- binding result [22]: no binding
- binding result [23]: no binding
- binding result [24]: no binding
- binding result [25]: no binding
- binding result [26]: no binding
- binding result [27]: no binding
- binding result [28]: no binding
- binding result [29]: no binding
- binding result [30]: no binding
- binding result [31]: no binding
- binding result [32]: no binding
- binding result [33]: no binding
- binding result [34]: no binding
- binding result [35]: no binding
- binding result [36]: no binding
- binding result [37]: no binding
- binding result [38]: no binding
- binding result [39]: no binding
B1: NEG276 (antibody, human IgG1, kappa)
heavy: not shown
light: EIVMTQSPATLSVSPGERATLSCKASQDIGSNLNWLQQKPGQAPRRLIYAVSNRGPGIPARFSGSRSGSEYTLTISSLQSEDFAVYYCLQYASSPWTFGQGTKVEIKRTVAAPSVFIFPPSDEQLKSGTASVVCLLNNFYPREAKVQWKVDNALQSGNSQESVTEQDSKDSTYSLSSTLTLSKADYEKHKVYACEVTHQGLSSPVTKSFNRGEC
notes: humanized, hIgG1/kappa, parental antibody 19C16

- Kd [40]: 0.056 nM
B2: NEG276-LALA (antibody, human IgG1, kappa, L234A L235A)
heavy: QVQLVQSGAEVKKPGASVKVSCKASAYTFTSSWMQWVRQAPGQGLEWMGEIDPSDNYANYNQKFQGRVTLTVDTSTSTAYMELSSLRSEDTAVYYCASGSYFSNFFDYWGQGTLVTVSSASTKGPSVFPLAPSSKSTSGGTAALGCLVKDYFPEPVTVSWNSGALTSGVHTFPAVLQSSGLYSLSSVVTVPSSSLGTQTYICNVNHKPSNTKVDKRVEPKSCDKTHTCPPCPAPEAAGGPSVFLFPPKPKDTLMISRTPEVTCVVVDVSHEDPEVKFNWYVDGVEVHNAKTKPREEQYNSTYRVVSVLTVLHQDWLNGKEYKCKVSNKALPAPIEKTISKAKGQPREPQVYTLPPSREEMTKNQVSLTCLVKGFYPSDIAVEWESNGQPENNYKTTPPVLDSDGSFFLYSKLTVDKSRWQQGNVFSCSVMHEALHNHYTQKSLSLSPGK
light: B1 light

- binding result [1]: no binding
- binding result [2]: no binding
- binding result [3]: no binding
- binding result [4]: no binding
- binding result [5]: no binding
- binding result [6]: no binding
- binding result [7]: no binding
- binding result [8]: no binding
- binding result [9]: no binding
- binding result [10]: no binding
- binding result [11]: no binding
- binding result [12]: no binding
- binding result [13]: no binding
- binding result [14]: no binding
- binding result [15]: no binding
- binding result [16]: no binding
- binding result [17]: no binding
- binding result [18]: no binding
- binding result [19]: no binding
- binding result [20]: no binding
- binding result [21]: no binding
- binding result [22]: no binding
- binding result [23]: no binding
- binding result [24]: no binding
- binding result [25]: no binding
- binding result [26]: no binding
- binding result [27]: no binding
- binding result [28]: no binding
- binding result [29]: no binding
- binding result [30]: no binding
- binding result [31]: no binding
- binding result [32]: no binding
- binding result [33]: no binding
- binding result [34]: no binding
- binding result [35]: no binding
- binding result [36]: no binding
- binding result [37]: no binding
- binding result [38]: no binding
- binding result [39]: no binding
B3: NEG318 (antibody, human IgG1, kappa, V domains shown)
VH: QVQLVQSGAEVKKPGASVKVSCKASGYTFTSFWITWVRQAPGQGLEWMGDIYPGGATTNYNEKLQGRVTLTVDTSTSTAYMELRSLRSDDTAVYYCARSPPQVGPFDYWGQGTLVTVSS
VL: DIQMTQSPSSLSASVGDRVTITCQASDYIYHWLAWYQQKPGKAPKLLISGASSLETGVPSRFSGSGSGKDYTFTISSLQPEDIATYYCQQYWSIPWTFGQGTKLEIKR
notes: humanized, hIgG1/kappa, parental antibody 14P18

Reference: US20220213181A1 (Novartis, published 2022)
